# Laboratory results reported in the nanobody polyreactivity screen of Harvey et al. (2022).
# Test: yeast display, Sf9 membrane polyspecificity reagent, FACS + sequencing; frameworks hold sequencing errors
# Outline: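 A nanobody's polyreactivity label depends on the gate it was sorted from. Yeast display cells were stained with 10% biotinylated, detergent-solubilized Sf9 membrane reagent for 1 hour at 4 °C, enriched on streptavidin microbeads and sorted by FACS. The low and high (top ~1%) gates were set on anti-HA fluorescence for expression and streptavidin fluorescence for reagent binding.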
row,Sequence,polyreactivity (PSR sort gate)
1,QVQLVESGGGLVQAGGSLRLSCAASGIIFYGYAMGWYRQAPGKERELVAAISRSGGSTYYADSVKGRFTISRDNAKNTVYLQMNSLKPEDTAVYYCAASGVTYDYWGQGTQVTVSS,high polyreactivity
2,QVQLVESGGGLVQAGGSLRLSCAASGIIFYGYDMGWYRQAPGKERELVAAITWSGGSTYYADSVKGRFTISRDNAKNTVYLQMNSLKPEDTAVYYCNADLDSGYGSYDYWGQGTQVTVSS,low polyreactivity
3,QVQLVESGGGLVQAGGSLRLSCAASGIIFYHYALGWYRPAPGKERELVAAISRRGGTTYYADSVKGRFTISRDNAKNTVYLQMNSLKPEDTAVYYCAADYGSYGLYRGYYYWGQGTQVTVSS,high polyreactivity
4,QVQLVESGGGLVQAGGSLRLSCAASGIIFYIYAMGWYRQAPGKERELVAGISWRGGSTSYADSVKGRFTISRDNAKNTVYLQMNSLKPEDTAVYYCAAEVYSWDGYDYWGQGTQVTVSS,low polyreactivity
5,QVQLVESGGGLVQAGGSLRLSCAASGIIFYIYAMGWYRQAPGKERELVATISNDGGSTYYADSVKGRFTISRDNAKNTVYLQMNSLKPEDTAFFYCNADFADDKNYLFESELEYDYWGQGTQVTVSS,low polyreactivity
6,QVQLVESGGGLVQAGGSLRLSCAASGIIFYKYSMGWYRQAPGKERELVAAITSGGGRTYYADSVKGRFTISRDNAKITVDLQMNSLKPEDTAVYYCAATRPATYAAYDYWGQGTQVTVSS,high polyreactivity
7,QVQLVESGGGLVQAGGSLRLSCAASGIIFYLYAMGWYIQAPGKERELVAAISWGGGTTYYADSVKGRFTISRDNAKNTVYLQMNSLKPEDTAVYYCAAETEYYSYRFDYWGQGTQVTVSS,high polyreactivity
8,QVQLVESGGGLVQAGGSLRLSCAASGIIFYLYAMGWYRQAPGKERELVAAISRRGGSTYYADSVKGRFTISRDNAKNTVYLQMNSLKPEDTAVYYCAATIGTFGYGYWGQGTQVTVSS,high polyreactivity
9,QVQLVESGGGLVQAGGSLRLSCAASGIIFYLYAMGWYRQAPGKERELVAAITLSGSTTYYADSVKGGFTISRDNAKNTVYLQMNSLKPEDTAVYYCNADTPVRSDYWGQGTQVTVSS,low polyreactivity
10,QVQLVESGGGLVQAGGSLRLSCAASGIIFYNNAMGWYRKAPGKERELVADITSGNTNYADSVKGRFTISRDNAKNTVYLQMNSLKPEDTAVYYCNAEDDYTYDRSFGGYKYDYWGQGTQVTVSS,low polyreactivity
11,QVQLVESGGGLVQAGGSLRLSCAASGIIFYPYAMGWYRQAPGKERELVAAISQSGGTTSYADSVKGRFTISRDNAKNTVYLQMNSLKPEDTAVYYCARRVSTRKRYYYWGQGTQVTVSS,high polyreactivity
12,QVQLVESGGGLVQAGGSLRLSCAASGIIFYPYAMGWYRQAPGKERELVAAISTSGGRTYYADSVKGRFTISRDNAKNTVYLQMNSLKPEDTAVYYCAADNSSGDVNGGGYWGQGTQVTVSS,low polyreactivity
13,QVQLVESGGGLVQAGGSLRLSCAASGIIFYRYAMGWYRQAPGKEREFVAAISWSGGSTTYADSVKGRFTISRDNAKNTVYLQMNSLKPEDTAVYYCNADRIYWSLWGPAYDYWGQGTQVTVSS,high polyreactivity
14,QVQLVESGGGLVQAGGSLRLSCAASGIIFYRYAMGWYRQAPGKERELVAAITWRGGSTYYADSVKGRFTISRDNAMNTVYLQMNSLKPEDTAVYYCAARRRATYELDYWGQGTQVNVSS,high polyreactivity
15,QVQLVESGGGLVQAGGSLRLSCAASGIIFYRYTKGWSRQAPGKETELVAGITRNGGSTYYADSVKGRFTISRVNAKNPVYLQMNSLKPEDTAVYYCATTLKFYWAKLDYRGQGTQVTVSS,low polyreactivity
16,QVQLVESGGGLVQAGGSLRLSCAASGIIFYSYAMGWYRPAPGKERELVAAISTGSSTNYADSVKGRFTISRDNAKNTVYLQMNSLKPEDTAVYYCAKSTAVKPYAYRESGFIYDYWGQGTQVTVSS,low polyreactivity
17,QVQLVESGGGLVQAGGSLRLSCAASGIIFYTYAMGWYRQAPGKERELVAAISRSGVRTYYADSVKGRFTISRDNAKNTVYLQMNSLKPEDTAVYYCAVDKGITQGLYDYWGQGTQVTVSS,high polyreactivity
18,QVQLVESGGGLVQAGGSLRLSCAASGIIFYTYVMGWYRQAPGKEREFVAGISTSGGRTDYADSVKGRFTISRDNAKNTVYLQMNSLKPEDTAVYYCNADYWQWYSYWYDYWGQGTQVTVSS,high polyreactivity
19,QVQLVESGGGLVQAGGSLRLSCAASGIIFYTYVMGWYRQAPGKEREFVAGISTSGGRTDYADSVKGRFTISRDNAKNTVYLQMNSLKPEDTAVYYCNKLYRYPRYYYWGQGTQVTVSS,high polyreactivity
20,QVQLVESGGGLVQAGGSLRLSCAASGIIFYVNDMGWYRQAPGKERELVADISGGTSTNYADSVKGRFTISRDNAKNTVYLQMNSLKPEDTAVYYCATAFIVPFPGSDYWGQGTQVTVSS,low polyreactivity
21,QVQLVESGGGLVQAGGSLRLSCAASGIIFYVYAMGWYRQAPGKERELVAAISDTAGDTYYADSVKGRFTISRDNAKNTVYLQMNSLKPEDTAVSYCAADYYPLVGYWGQGTQVTVSS,low polyreactivity
22,QVQLVESGGGLVQAGGSLRLSCAASGIIFYVYAMGWYRQAPGKERELVAAISTSGGSTYYADSVKGRFTISRDNAKNTVYLQMNSLKPEDTAVYYCAADRPARSPKGSVDYWGQGTQVTVSS,high polyreactivity

row,Sequence,polyreactivity (PSR sort gate)
1,QVQLVESGGGLVQAGGSLRLSCAASGIIFYYNAMGWYRQAPGKERELVAAISWSGGSTYYADSVKGRFTISRDNAKNTVYLQMNSLKPEDTAVYYCNAVRSTSYGSYNYWGQGTQVTVSS,low polyreactivity
2,QVQLVESGGGLVQAGGSLRLSCAASGIIFYYNAMGWYRQAPGKERELVAAISWSGGSTYYADSVKGRFTISRDYAKNSVYLQMNSLKTEDTAVYYCAADYYWRVHYGYWGQGTQVTVSS,high polyreactivity
3,QVQLVESGGGLVQAGGSLRLSCAASGIIFYYYAMGWYRQAPGKERELVAAITGTGSRTYYADSVKGRFTISRDNAKNTVYLQMNSLKPEDTAVYYCNARSFATGSKVPARGYWGQGTQVTVSS,high polyreactivity
4,QVQLVESGGGLVQAGGSLRLSCAASGIIFYYYAMGWYSPAPGKERELVAAISSGGSTYYADSVKGRFTISRDNAKNTVYLQMNSLKPEDTAVYYCAADPLYTIDIEYSTYGDFDYWGQGTQVTVSS,low polyreactivity
5,QVQLVESGGGLVQAGGSLRLSCAASGIIIARNTMGWYRQAPGKERELVAAISTRGTTTYYADSVKGRFTISRDNAENTVYLQMNSLKPEDTAVYYCAAVRVHTDRYNYWGQGTQVTVSS,high polyreactivity
6,QVQLVESGGGLVQAGGSLRLSCAASGIIIKYYAMGWYRQAPGKERELVAAITDRGGSTYYADSVKGRFTISRDNAKNTVYLQMNSLKPEDTAVYYCAARRRAYTPYYYWGQGTQVTVSS,high polyreactivity
7,QVQLVESGGGLVQAGGSLRLSCAASGIIIRNYGMGCYRQAPGKERELVARIRWTGGSTYYADSVKGRFTISRDNAKNTVYLQMNSLKPEDTAVYYCAADIWQYSRIANYHPYDYWGQGTQVTVSS,low polyreactivity
8,QVQLVESGGGLVQAGGSLRLSCAASGIIIVRYAMGWYRQAPGKERELVAAISRRGGSTYYADSVKGRFTISRDNAKNTVSLQMNSLKPEDTAVYYCAALLGDITGYDYWGQGTQVTVSS,high polyreactivity
9,QVQLVESGGGLVQAGGSLRLSCAASGIILAFNAMGWYRQAPGKEREFVASISQGGSSTYYADSVKGRFTISRDNAKNTVYLQMNSLKREDTAVYYCAARSSRVRSPYQRYYYWGQGTQVTVSS,high polyreactivity
10,QVQLVESGGGLVQAGGSLRLSCAASGIILDRNAMGWYRQAPGKERELDAAINSIGGSTYYADSVKGRFTISRDNAKNTVYLQMNSLKPEDTAVYYCAAPSTSSYYWGQGTQVTVSS,low polyreactivity
11,QVQLVESGGGLVQAGGSLRLSCAASGIILGAYDMGLYRQAPGKERELVAAINRNGDRTYYADSVKGRFTISRDNAKNTVYLQMKSLKPEDTAVYFCAAPRVVRTFDYWGQGTQVTVSS,high polyreactivity
12,QVQLVESGGGLVQAGGSLRLSCAASGIILHYYAMGWYRQAPGKERELVAAISARGGRTYYADSVKGRFTISRDNANNTVYLQMNSLKPEDTAVYYCAAVTVASPTRMDYWGQGTQVTVSS,high polyreactivity
13,QVQLVESGGGLVQAGGSLRLSCAASGIILNYNAMGWYRQAPGKERELVAVIRTRGGSTYYADSVKGRFTISRDNAKNTVYLQMNSLKPEDTAVYYCAAKQIPWHRGGFGYDYWGQGSQVTVSS,low polyreactivity
14,QVQLVESGGGLVQAGGSLRLSCAASGIILPYYAMGWYRQAPGKEREIVATISSDGTSTYYADSVKGRFTISRDNAKNTVYLQMNSLKPEDTAVYYCAARIRQNPGGDNSWGQGTQVTVSS,low polyreactivity
15,QVQLVESGGGLVQAGGSLRLSCAASGIILRGYVIGWYRQAPGQERELVAAISTSGGRTYYADSVKGRFTISRDNAKNTVYLQMNSLKQEDTAVYYCAAVSSRLWLYDYWGQGTQVTVSS,high polyreactivity
16,QVQLVESGGGLVQAGGSLRLSCAASGIILSDNAMGWYRQAPGKEREFVAAITGSCGSTYYADSVKGRFTISRDYAKKTDDLQMNSLKPEDTAVYYCSADGPFGYYYGHYGYWGQVTQVTVSS,low polyreactivity
17,QVQLVESGGGLVQAGGSLRLSCAASGIILSDNAMGWYRQAPGKEREIVAAITGSGGSTYYADSVKGRFTISRDNAKNTVYLQMNSLKPEDTAVYYCAADGPYGYYYGHYGYWGQGTQVTVSS,low polyreactivity
18,QVQLVESGGGLVQAGGSLRLSCAASGIILVNNAMGWYRQAPGTEREFVAAIRYSAGSTYYADSVKGRFTISRDTAKNTVYLQMNSLKAEDTAVYYCARRWKGGWYEYGYWGQGTQVTVAS,high polyreactivity
19,QVQLVESGGGLVQAGGSLRLSCAASGIILWRNAMGWYRQAPGKDRELVAAITSSGGRTYYADSVKGRFTISRDNAKNTVYLQMNSLKPEDTAVYYCSAYGYSIGPYDYWGQGTQVTVSS,high polyreactivity
20,QVQLVESGGGLVQAGGSLRLSCAASGIILYGYAMGWYRQAPGKARELVAALTWSGGSTYYADSVKGRFTISRDNAKNTVYLQMNSLKPEDTAVYYCAVDVHTSADASLPQEYDYWGQGTQVTVSS,low polyreactivity
21,QVQLVESGGGLVQAGGSLRLSCAASGIILYPYAMGWYRQAPGKERELVAAISWSGGSTYYADSVKGRFTISRDKAKNTVYLQMNSLKPEDTAVYYCNARYYGPSWNSYDYWGQGTQVTVSS,high polyreactivity
